Reference: patent US20250388652A1 (BEIJING WISDOMAB BIOTECHNOLOGY, published 2025)
Changes are numbered by the printed parent chain.

B1: recombinant monoclonal antibody R3B1h1 against F protein of RSV (human IgG1-K version) (antibody, V domains shown)
VH: QVQLVQSGAEVKKPGSSVKVSCKASGGLLEDYIINWVRQAPGQGLEWMGGIIPVLGTVHYGPKFQGRVTITADESTSTAYMELSSLRSEDTAVYYCATETAIVVTESYRPHFFDNWGQGTLVTVSS
VL: DIQMTQSPSSLSASVGDRVTITCQASQDIVNYLNWYQQKPGKAPKLLIYVASNLETGVPSRFSGSGSGTDFTFTISSLQPEDIATYYCQEFAGLALNFGGGTKVEIKR
B2: recombinant monoclonal antibody R22B1 against F protein of RSV (human IgG1-K version) (antibody, V domains shown)
VH: QVQLVQSGAEVKKPGSSVMVSCQASGDPLQNYIINWVRQAPGQGPEWMGAIIPALGSAHYGPKFQGRVTITADESTDTAYMELSSLRSEDTAMYYCATETAVIISESYLPHFFDNWGQGTLVTVSS
VL: B1 VL with S14A, T72S, F73L, I83V, F91Y, A92D, G93S, N97A
B3: anti-RSV monoclonal antibody Nirsevimab (MEDI8897) (antibody, V domains shown)
VH: B1 VH with K19M, K23Q, L45P, S77D, V93M, I102L, T105S, S107T, R109L, F112Y
VL: DIQMTQSPSSLSAAVGDRVTITCQASQDIVNYLNWYQQKPGKAPKLLIYVASNLETGVPSRFSGSGSGTDFSLTISSLQPEDVATYYCQQYDNLPLTFGGGTKVEIK
B4: anti-RSV monoclonal antibody Clesrovimab (RB1) (antibody, V domains shown)
VH: EVQLVESGGGLVRPGRSLRLSCTVSGFSFDDSAMSWVRQAPGKGLEWISFIKSKTYGGTKEYAASVKGRFTISRDDSKNIAYLQMNSLKTEDTAVYYCTRGAPYGGNSDYYYGLDVWGQGTTVTVSS
VL: DIQMTQSPSSLSASVGDRVTITCRTSQDVRGALAWYQQKPGKAPKLLIFDASSLETGVPSRFSGSGSGTVFTLTISSLQPEDFAAYYCQQFLDFPFTFGQGTRLEIK
B5: anti-RSV monoclonal antibody Palivizumab (Hu1129) (antibody, V domains shown)
VH: QVTLRESGPALVKPTQTLTLTCTFSGFSLSTSGMSVGWIRQPPGKALEWLADIWWDDKKDYNPSLKSRLTISKDTSKNQVVLKVTNMDPADTATYYCARSMITNWYFDVWGAGTTVTVSS
VL: DIQMTQSPSTLSASVGDRVTITCKCQLSVGYMHWYQQKPGKAPKLWIYDTSKLASGVPSRFSGSGSGTEFTLTISSLQPDDFATYYCFQGSGYPFTFGGGTKLEIK

Experiments:
[1] = target: T1, F protein of strain 18537 of RSV subtype B (respiratory syncytial virus subtype B, …, UniProt P13843 26-574); assay: cell-based or functional assay
[2] = target: T2, F protein of strain A2 of RSV subtype A (respiratory syncytial virus subtype A, …, UniProt P03420 26-574); assay: cell-based or functional assay
[3] = target: T2, F protein of strain A2 of RSV subtype A; assay: cell-based or functional assay; remark: listed apart in the source
[4] = target: T3, F protein mutant RSV-DS-Cav1-A with a DS-Cav1 structure before fusion (respiratory syncytial virus subtype A, …, UniProt P03420 26-513)
[5] = target: T3, F protein mutant RSV-DS-Cav1-A with a …; remark: listed apart in the source
[6] = target: T1, F protein of strain 18537 of RSV …; assay: cell-based or functional assay; remark: listed apart in the source

Binder	neutralisation activity against RSV/18537 relative to Clesrovimab, by IC50 [1] [fold]	neutralisation activity against RSV/18537 relative to Nirsevimab, by IC50 [1] [fold]	neutralisation activity against RSV/18537 relative to Palivizumab, by IC50 [1] [fold]	neutralisation activity against RSV/A2 relative to Clesrovimab, by IC50 [2] [fold]	neutralisation activity against RSV/A2 relative to Nirsevimab, by IC50 [2] [fold]	neutralisation activity against RSV/A2 relative to Palivizumab, by IC50 [2] [fold]	IC50(nM), inhibition of RSV/A2 strain infection of Hep-2 cells (RFFIT) [3] [nM]	EC50 (read off the curve) [4] [pM]	Kd [5] [pM]	koff [5] [s⁻¹]	kon [5] [M⁻¹ s⁻¹]	IC50(nM), inhibition of strain RSV/18537 infection of Hep-2 cells (RFFIT) [6] [nM]
B1	~12	~18	~545	~12	~5	~410	0.00516	~100	621	2.37e-05	31800	–
B2	–	–	–	–	–	–	–	–	354	1.41e-05	39900	0.111
B3	–	–	–	–	–	–	–	–	477	1.5e-05	31500	0.139
B4	–	–	–	–	–	–	–	–	17600	0.000351	20000	0.088
B5	–	–	–	–	–	–	–	–	2600	8.2e-05	31600	4.15
